# Assay results as given in patent publication US20250320312A1 (OXITOPE PHARMA B V, published 2025).
# Residue numbers refer to the chain shown, from its start.
# T1: Peptide 4: Biotin-AGGGGSGGGGSGGGGSAAA-Tyr-acid (N-terminal biotin; C-terminal acid)
# T1 construct: Control peptide without PC
# T1 peptide: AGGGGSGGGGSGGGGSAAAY
# T2: Peptide 8: Biotin-AEAAAKEAAAKEAAAKEAAAKAAA-Tyr-acid (N-terminal biotin; C-terminal acid)
# T2 construct: Control peptide without PC
# T2 peptide: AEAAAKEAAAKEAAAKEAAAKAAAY
# B1: PcOxP_DB03_G12 (scFv, V domains shown)
# VH: EVQLLESGGGLVQPGGSLRLSCAASGFTFSDYYMEWVRQAPGKGLEWVAASRNKYNDYTTEYADSVKGRFTISRDNSKNTLYLQMNSLRAEDTAVYYCARDYYGSSYWYFDVWGQGTLVTVSS
# VL: DIVMTQSPDSLAVSLGERATINCKSSESVYSSKHKKHYLAWYQQKPGQPPKLLIYGASNRYIGVPDRFSGSGSGTDFTLTISSLQAEDVAVYYCAQFYSYPLTFGGGTKVEIK
# notes: scFv in periplasmic extract
# B2: PcOxP_DB03_H02 (scFv, V domains shown)
# VH: B1 VH with F29E, Y32F
# VL: B1 VL with K24T, S25A, V29L, K36V, S58Q
# notes: scFv in periplasmic extract
# B3: PcOxP_DB03_H10 (scFv, V domains shown)
# VH: B1 VH with S30D, Y32F, K54E, Y55A
# VL: B1 VL with K24T, S25A, V29L, K36V, S58G, S99H
# notes: scFv in periplasmic extract
# B4: PcOxP_DB04_A04 (scFv, V domains shown)
# VH: B1 VH with Y32F, Y55W
# VL: B1 VL with K24T, S25A, E27Q, H34N, S99R
# notes: scFv in periplasmic extract
# B5: PcOxP_DB04_A05 (scFv, V domains shown)
# VH: B1 VH with Y32F, M34I, Y55A
# VL: B1 VL with K24T, S25A, V29L, K36V, Y61E
# notes: scFv in periplasmic extract
# B6: PcOxP_DB04_A11 (scFv, V domains shown)
# VH: B1 VH with Y55A, D57T
# VL: B1 VL with K24T, S25A, Y30L, H37N, N59T
# notes: scFv in periplasmic extract
# B7: PcOxP_DB04_B01 (scFv, V domains shown)
# VH: B1 VH with F29Q, Y32F, Y55A, S105E
# VL: B1 VL with K24T, S25A, E27V, V29L, K36V, A57P
# notes: scFv in periplasmic extract
# B8: PcOxP_DB04_B07 (scFv, V domains shown)
# VH: B1 VH with F27P, Y32F, Y55A, D57G
# VL: B1 VL with K24T, S25A, V29L, K36V
# notes: scFv in periplasmic extract
# B9: PcOxP_DB04_B10 (scFv, V domains shown)
# VH: B1 VH with F29D, Y32F, Y55A, D57G
# VL: B1 VL with K24T, S25A, V29L, K36V, Y61P, A95G
# notes: scFv in periplasmic extract
# B10: PcOxP_DB04_B11 (scFv, V domains shown)
# VH: B1 VH with F27D, Y32F, N53W, Y55A
# VL: B1 VL with K24T, S25A, V29L, K36V
# notes: scFv in periplasmic extract
# B11: PcOxP_DB04_B12 (scFv, V domains shown)
# VH: B1 VH with Y55A
# VL: B1 VL with K24T, S25A, V29L, K36V, Q96A
# notes: scFv in periplasmic extract
# B12: PcOxP_DB04_C09 (scFv, V domains shown)
# VH: B1 VH with D31S, Y55A, G104L
# VL: B1 VL with K24T, S25A, V29L, S32P, K36V, S58E
# notes: scFv in periplasmic extract
# B13: PcOxP_DB04_C10 (scFv, V domains shown)
# VH: B1 VH with Y32G, S51I, Y55A, S106H
# VL: B1 VL with K24T, S25A, V29L, K36V
# notes: scFv in periplasmic extract
# B14: PcOxP_DB04_C11 (scFv, V domains shown)
# VH: B1 VH with Y55A
# VL: B1 VL with K24T, S25A, V29L, K36V, N59H, Y61Q
# notes: scFv in periplasmic extract
# B15: PcOxP_DB04_D01 (scFv, V domains shown)
# VH: B1 VH with Y55G, E61A
# VL: B1 VL with K24T, S25A, V29L, K36V, N59Q
# notes: scFv in periplasmic extract
# B16: PcOxP_DB04_D05 (scFv, V domains shown)
# VH: B1 VH with K54V, Y55A
# VL: B1 VL with K24T, S25A, E27T, V29L, K36V
# notes: scFv in periplasmic extract
# B17: PcOxP_DB04_D07 (scFv, V domains shown)
# VH: B1 VH with N53W, Y55A
# VL: B1 VL with K24T, S25A, V29L, K36V, S99T
# notes: scFv in periplasmic extract
# B18: PcOxP_DB04_D09 (scFv, V domains shown)
# VH: B1 VH with F29D, Y32F, Y55A
# VL: B1 VL with V29L, H34N, K36V, I62S
# notes: scFv in periplasmic extract
# B19: PcOxP_DB04_D10 (scFv, V domains shown)
# VH: B1 VH with F29G, Y32F, N53W, Y55A
# VL: B1 VL with K24T, S25A, V29L, S32T, K36V, N59H, S99Q
# notes: scFv in periplasmic extract
# B20: PcOxP_DB04_D12 (scFv, V domains shown)
# VH: B1 VH with Y32Q, Y55A, Y58W
# VL: B1 VL with K24T, S25A, V29L, K36V
# notes: scFv in periplasmic extract
# B21: PcOxP_DB04_E05 (scFv, V domains shown)
# VH: B1 VH with F27N, Y32F, Y55A, D57Y
# VL: B1 VL with K24T, S25A, V29L, K36V
# notes: scFv in periplasmic extract
# B22: PcOxP_DB04_E06 (scFv, V domains shown)
# VH: B1 VH with F29G, Y32F, Y55A, S106P
# VL: B1 VL with K24T, S25A, V29L, K36V
# notes: scFv in periplasmic extract
# B23: PcOxP_DB04_E08 (scFv, V domains shown)
# VH: B1 VH with F29S, Y32F, M34L, Y55W
# VL: B1 VL with K24T, S25A, V29L, K36V, A57V
# notes: scFv in periplasmic extract
# B24: PcOxP_DB04_E12 (scFv, V domains shown)
# VH: B1 VH with Y32F, Y55A
# VL: B1 VL with K24T, S25A, V29L, K36V, Y61V, S99I
# notes: scFv in periplasmic extract
# B25: PcOxP_DB04_F01 (scFv, V domains shown)
# VH: B1 VH with D31P, Y32F, Y55A
# VL: B1 VL with K24T, S25A, V29L, K36V, S99E
# notes: scFv in periplasmic extract
# B26: PcOxP_DB04_F03 (scFv, V domains shown)
# VH: B1 VH with F29A, Y32F, N53W, Y55A, Y102I
# VL: B1 VL with K24T, S25A, V29L, K36V
# notes: scFv in periplasmic extract
# B27: PcOxP_DB04_F05 (scFv, V domains shown)
# VH: B1 VH with Y55A
# VL: B1 VL with K24T, S25A, V29L, K33N, K36V, A57V
# notes: scFv in periplasmic extract
# B28: PcOxP_DB04_G01 (scFv, V domains shown)
# VH: B1 VH with Y55W, G104L
# VL: B1 VL with S25A, E27Q, Y30L, H34N, K35N, K36V, H37N, S99Q
# notes: scFv in periplasmic extract
# B29: PcOxP_DB04_G03 (scFv, V domains shown)
# VH: B1 VH with F29T, Y32F, Y55A, V112Y
# VL: B1 VL with K24T, S25A, V29L, K36V, Y61N, Q96H
# notes: scFv in periplasmic extract
# B30: PcOxP_DB04_G08 (scFv, V domains shown)
# VH: B1 VH with F29G, Y32F, Y55A
# VL: B1 VL with K24T, S25A, V29L, K36V, I62Q, S99W
# notes: scFv in periplasmic extract
# Biological target: BSA (UniProt P02769)
# Sequence (P02769 25-607 limits assumed): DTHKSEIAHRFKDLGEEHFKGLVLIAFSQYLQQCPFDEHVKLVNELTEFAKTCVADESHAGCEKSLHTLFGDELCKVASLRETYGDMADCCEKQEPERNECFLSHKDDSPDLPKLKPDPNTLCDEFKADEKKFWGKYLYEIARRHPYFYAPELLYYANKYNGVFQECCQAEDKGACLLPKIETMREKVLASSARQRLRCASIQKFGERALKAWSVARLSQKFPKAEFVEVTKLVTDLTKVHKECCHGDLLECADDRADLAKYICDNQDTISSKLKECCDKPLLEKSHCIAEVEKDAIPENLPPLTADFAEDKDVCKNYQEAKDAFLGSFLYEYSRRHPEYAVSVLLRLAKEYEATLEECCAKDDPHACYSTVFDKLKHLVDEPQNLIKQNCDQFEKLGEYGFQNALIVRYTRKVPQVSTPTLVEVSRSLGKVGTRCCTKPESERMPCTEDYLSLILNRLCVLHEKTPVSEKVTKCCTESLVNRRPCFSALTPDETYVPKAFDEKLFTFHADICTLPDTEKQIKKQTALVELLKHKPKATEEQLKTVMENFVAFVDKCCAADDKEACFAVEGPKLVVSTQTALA
# Test: scFv ELISA
row,OD450 [OD450],Binder
1,0.08,B1
2,0.05,B2
3,0.05,B3
4,0.11,B4
5,0.06,B5
6,0.1,B6
7,0.06,B7
8,0.09,B8
9,0.06,B9
10,0.08,B10
11,0.09,B11
12,0.11,B12
13,0.08,B13
14,0.07,B14
15,0.07,B15
16,0.08,B16
17,0.08,B17
18,0.06,B18
19,0.07,B19
20,0.08,B20
21,0.09,B21
22,0.07,B22
23,0.09,B23
24,0.07,B24
25,0.09,B25
26,0.1,B26
27,0.07,B27
28,0.09,B28
29,0.07,B29
30,0.07,B30

# Biological target: Peptide 1: Biotin-…-[Tyr(PC)]-acid
# Test: scFv ELISA
row,OD450 [OD450],Binder
1,1.57,B1
2,1.07,B2
3,0.24,B3
4,1.09,B4
5,0.72,B5
6,0.64,B6
7,0.45,B7
8,0.93,B8
9,1.05,B9
10,0.26,B10
11,0.13,B11
12,0.55,B12
13,0.54,B13
14,0.81,B14
15,1.23,B15
16,0.87,B16
17,1.02,B17
18,0.41,B18
19,1.14,B19
20,0.64,B20
21,0.67,B21
22,1.04,B22
23,1.39,B23
24,1.03,B24
25,0.56,B25
26,0.58,B26
27,0.76,B27
28,0.63,B28
29,0.19,B29
30,1.39,B30

# Biological target: Peptide 5: Biotin-…-[Tyr(PC)]-acid
# Test: scFv ELISA
row,OD450 [OD450],Binder
1,1.91,B1
2,1.69,B2
3,0.39,B3
4,1.9,B4
5,1.29,B5
6,1.6,B6
7,0.78,B7
8,1.33,B8
9,1.56,B9
10,0.31,B10
11,0.34,B11
12,1.21,B12
13,1.03,B13
14,1.34,B14
15,1.66,B15
16,1.27,B16
17,1.05,B17
18,0.83,B18
19,1.35,B19
20,1.03,B20
21,1.03,B21
22,1.59,B22
23,2.01,B23
24,1.39,B24
25,0.85,B25
26,0.87,B26
27,0.97,B27
28,1.39,B28
29,0.4,B29
30,1.67,B30

# Biological target: T1, Peptide 4: …
# Test: scFv ELISA
# Procedure, shortened: (§1)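 Bound scFv was read as OD450 after HRP–anti-V5 detection, TMB development and HCl stop. PPE with BSA was incubated 1 h at RT on BSA-blocked wells coated overnight at 4° C. with peptide, or on streptavidin wells loaded 1 h with biotinylated PC-peptides at 1 μg/mL.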
row,OD450 [OD450],Binder
1,0.06,B1
2,0.05,B2
3,0.04,B3
4,0.08,B4
5,0.04,B5
6,0.07,B6
7,0.05,B7
8,0.06,B8
9,0.05,B9
10,0.05,B10
11,0.04,B11
12,0.07,B12
13,0.06,B13
14,0.05,B14
15,0.06,B15
16,0.05,B16
17,0.05,B17
18,0.05,B18
19,0.05,B19
20,0.06,B20
21,0.06,B21
22,0.04,B22
23,0.06,B23
24,0.05,B24
25,0.07,B25
26,0.06,B26
27,0.06,B27
28,0.07,B28
29,0.04,B29
30,0.05,B30

# Biological target: T2, Peptide 8: …
# Test: scFv ELISA
# Procedure, shortened: as §1
row,OD450 [OD450],Binder
1,0.05,B1
2,0.04,B2
3,0.07,B3
4,0.08,B4
5,0.04,B5
6,0.08,B6
7,0.05,B7
8,0.05,B8
9,0.04,B9
10,0.05,B10
11,0.04,B11
12,0.06,B12
13,0.05,B13
14,0.04,B14
15,0.06,B15
16,0.06,B16
17,0.05,B17
18,0.08,B18
19,0.05,B19
20,0.05,B20
21,0.05,B21
22,0.05,B22
23,0.05,B23
24,0.05,B24
25,0.07,B25
26,0.05,B26
27,0.05,B27
28,0.09,B28
29,0.05,B29
30,0.05,B30
